Laboratory results from patent US20210041458A1, “Lectin Assay For Assessing Glycoforms As An Early Marker In Disease” (Baruch S. Blumberg Institute, priority 2009, published 2021).
Substitutions are numbered along the chain they refer to. Names may count otherwise. “Also recorded” adds a separate entry of the source. Blank lines part the entries; values can stand above or below the molecule they belong to.

Assays:
[1] = Selectivity for fucose linkage; format: binding
[2] = test system: IgG0 ligand; assay: IgG0 ligand binding to AAL proteins coated on nickel NTA plates, fluorescence readout; set-up: species or system human; settings: FIG. 2
Experimental: Equal amounts of recombinant AAL (wild type or mutants) containing 10× Histidine tags were coated to nickel NT A plates and incubated with increasing amounts of IgG0 ligand (X axis). Un tagged, commercially purchased AAL (AAL-V) was also coated to nickel NT A plates or on high affinity binding ELISA plates (AAL-Vc) and incubated with increasing amounts of IgG0 ligand. Plates were washed and incubated with fluorescently tagged anti-human lgG, washed and read in a fluorescence detector. Increasing relative fluorescence indicates higher binding affinity.

[3] = test system: IgG0 ligand; assay: Competition (indirect) ELISA: unbiotinylated AAL proteins against biotinylated AAL binding to IgG0 in serum; set-up: species or system human; settings: for decrease in signal output versus control: compared with commercial (Vector) AAL
Experimental: 96 well plates are coated with sodium periodate (NaIO4) treated mouse IgG (1.0 ug/well). 3 ul of serum from a patient with cirrhosis (Gish 342) or serum from normal donors (Sigma) were diluted to 100 ul and added to antibody coated wells. Plates are washed and then incubated at room temperature for 30 minutes/shaking with equivalent amounts of either unbiotinylated commercial (Vector) AAL, unbiotinylated recombinant 10×-His tagged (rAAL 10×), or unbiotinylated recombinant 10×-His tagged mutant AAL (rAAL N129Q, N224Q)). Equivalent amounts of biotinylated AAL was then added to each well and incubated for 1 hour at room temperature/shaking. Plates are washed and incubated with streptavidin-800-IRDye as previously described. Plates are washed and fluorescence quantified using a LiCor Odyssey machine. Control samples measured biotinylated AAL binding to IgG0 in the absence of unbiotinylated AAL.
Competition experiments provide an indirect ELISA for measuring the ability of unbiotinylated commercial (Vector) and unbiotinylated rAAL proteins to interfere with binding of biotinylated AAL to the IgG0 ligand. It is a qualitative indication of the relative affinities of the untagged AAL proteins for the IgG0 ligand.

[4] = multivalent; compared to other lectins; cited from earlier work
[5] = Surface plasmon resonance, tryptophan fluorescence and enzyme linked lectin assays; format: binding; settings: rAAL from bacteria, isolated by nickel affinity chromatography
Experimental: Quantitative equilibrium binding of mutant and wild-type AAL for the selection ligand and other L-fucopyranosyl oligosaccharides are determined by BIAcore analysis and enzyme linked lectin assays (Oiausson et al).

[6] = serum from a cirrhotic patient (Gish 342), FIG. 3

B1: N224Q: mutant Aleuria aurantia lectin with N224 changed to glutamine (protein, UniProt P18891 2-313, looked up, variant N224Q)
Fucose-specific lectin: PTEFLYTSKIAAISWAATGGRQQRVYFQDLNGKIREAQRGGDNPWTGGSSQNVIGEAKLFSPLAAVTWKSAQGIQIRVYCVNKDNILSEFVYDGSKWITGQLGSVGVKVGSNSKLAALQWGGSESAPPNIRVYYQKSNGSGSSIHEYVWSGKWTAGASFGSTVPGTGIGATAIGPGRLRIYYQATDNKIREHCWDSNSWYVGGFSASASAGVSIAAISWGSTPQIRVYWQKGREELYEAAYGGSWNTPGQIKDASRPTPSLPDTFIAANSSGNIDISVFFQASGVSLQQWQWISGKGWSIGAVVPTGTPAGW
modifications: 10xHis tag
notes: mutant Aleuria aurantia lectin with N224 changed to glutamine
selectivity for the 1-6 linkage against outerarm linkages [1]: more selective for the 1-6 linkage than outerarm

Limit of Detection ([2]; IgG0 ligand): 10 ng/mL | improvement of the Limit of Detection ([2]; IgG0 ligand): 10-100 fold | signal to noise ratio ([2]; increasing IgG0 ligand): highest signal to noise ratio
B2: AAL M1(N129Q): recombinant 10× His-tagged mutant Aleuria aurantia lectin with N129 changed to glutamine (protein, UniProt P18891 2-313, looked up, variant N129Q)
Fucose-specific lectin: B1 Fucose-specific lectin with N129Q, Q224N
modifications: 10xHis tag
notes: recombinant 10× His-tagged mutant Aleuria aurantia lectin with N129 changed to glutamine

signal output ([3]; serum from a cirrhotic patient (Gish 342), control ~35, FIG. 3): ~20
B3: commercial (Vector) AAL: untagged, commercially purchased AAL (Vector), eluted with L-fucose in manufacture (protein, UniProt P18891 2-313, looked up)
Fucose-specific lectin: B1 Fucose-specific lectin with Q224N

B4: AAL: 312 amino acid lectin with five binding sites for L-fucose or L-fucose-linked oligosaccharides (protein, UniProt P18891 2-313, looked up)
Fucose-specific lectin: B1 Fucose-specific lectin with Q224N
binding affinity for carbohydrate ligands [4]: micromolar; also recorded: micrormolar

B5: rAAL (N129Q, N224Q): recombinant 10×-His tagged mutant AAL with both N129Q and N224Q (protein, UniProt P18891 2-313, looked up, variant N129Q N224Q)
Fucose-specific lectin: B1 Fucose-specific lectin with N129Q
modifications: 10xHis tag
notes: recombinant 10×-His tagged mutant AAL with both N129Q and N224Q
decrease in signal output versus control [3, 6]: greater decreases in signal output versus control

B6: rAAL 10×: unbiotinylated recombinant 10×-His tagged wild-type AAL (protein, UniProt P18891 2-313, looked up)
Fucose-specific lectin: B1 Fucose-specific lectin with Q224N
modifications: 10xHis tag
notes: unbiotinylated recombinant 10×-His tagged wild-type AAL
decrease in signal output versus control [3, 6]: greater decreases in signal output versus control

affinity for the IgG0 ligand compared with commercially available AAL ([3]; Example 1): higher affinity | affinity in cirrhotic patients compared with controls ([3]; serum samples, FIG. 3): significantly higher affinity | binding affinities for fucosylated oligosaccharides compared with commercially prepared AAL [5]: substantially higher binding affinities
B7: rAAL: recombinant AAL produced in and isolated from bacteria using nickel affinity chromatography (protein, UniProt P18891 2-313, looked up)
Fucose-specific lectin: B1 Fucose-specific lectin with Q224N
modifications: His tag
